In paper PMC11697773:

Target: human neonatal Fc receptor (FcRn) (human) (UniProt P55899)
Test: BLI; Octet; biotinylated human FcRn on streptavidin-coated biosensors, antibody soluble; equilibrium binding; PBSA pH 5.6; tips regenerated in PBSA pH 7.4

B1: F5111 antibody, wild type (hIgG1 lambda) (antibody, V domains shown)
VH: QLQLQESGPGLVKPSQTLSLTCTVSGGSISSGGYYWSWIRQHPGKGLEWIGYIYYSGSTYYNPSLKSRVTISVDTSKNQFSLKLSSVTAADTAVYYCARTPTVTGDWFDPWGRGTLVTVSS
VL: NFMLTQPHSVSESPGKTVTISCTRSSGSIASNYVQWYQQRPGSSPTTVIYEDNQRPSGVPDRFSGSIDSSSNSASLTISGLKTEDEADYYCQSYDSSNVVFGGGTKLTVL
  Kd: 107 nM
